The RNAGym collection of RNA variant scans (doi:10.1073/pnas.2313332121)
Variants at the floor of the assay were thinned out.

B1: TPR 5TU (parent)
chain: GGAUCUUCUCGAUCUAACAAAAAAGACAAAUCUGCCACAAAGCUUGAGAGCAUCUUCGGAUGCAGAGGCGGCAGCCUUCGGUGGCGCGAUAGCGCCAACGUUCUCAACUAUGACACGCAAAACGCGUGCUCCGUUGAAUGGAGUUUAUCAUG

Variants of: B1
Test: polymerase ribozyme fitness, log enrichment relative to wild type (log ratio); higher = more active; in vitro selection for triplet polymerase activity
In short: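 Each subunit of a heterodimeric triplet polymerase ribozyme was mutagenized into a library by PCR, transcribed, and subjected to one round of in vitro selection, run in triplicate. Libraries were annealed with a biotinylated primer, the partner subunit and triplets, incubated frozen at −7 °C, and extended constructs were gel-excised, captured on streptavidin beads and recovered by RT-PCR. Input and output libraries were sequenced on Illumina, keeping genotypes with ≥10 input reads and ≥1 read per output. Fitness is log base 2 of genotype enrichment divided by wild-type enrichment, from inverse-variance-weighted replicate averages.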

Variant	polymerase ribozyme fitness (log ratio)
C93G C105A A107G G141U	≤ -4.2
U90C C95A U102A C132A	≤ -4.2
G92C	-0.459
G92A	-2.51
G92U	-0.671
G92U C93U	-2.13
G92U C108U C125G G140C	≤ -4.2
A89U	-0.292
C93A U134C	-1.59
G92U G133U	-3.41
A89U G141C	-0.255
C93A G94A C123U C149U	≤ -4.2
C93U C116U	-0.9
U90A	-4.07
U90C	-2.87
U90G	≤ -4.2
C93A G124C U127C G133C U135A U148G	≤ -4.2
G92U C93A G133U G140A	≤ -4.2
A89G G92U C125U U146C	-1.03
A89U G143U	-2.38
G92A C118G	-3.69

Variant	polymerase ribozyme fitness (log ratio)
A91G U127A	≤ -4.2
A89U A142C U146C A150U	-3.99
A89U C103U A106C G117A	-2.14
A89G U111C	≤ -4.2
C93G A147U	-1.74
G92A C105A	-3.36
G92C G141A	-0.778
A91G C93U	-3.88
A91G U130G	≤ -4.2
C93G A97U	-3.39
A91U C118A A142C U144G	≤ -4.2
C93G C116U	-3.07
C93A A121C U148C	-2.37
C93G C105A G136U	≤ -4.2
C93A A106G	-1.9
A91C A142C	≤ -4.2
C93A C96U	-3.3
C93A C96A	-3.78
C93A C116G A142G	-3.07
A89U A121U	-0.72
C93G C108U C116G	≤ -4.2

Variant	polymerase ribozyme fitness (log ratio)
C93A C118U C125A A142G	≤ -4.2
G92C U146A	-0.323
A91G U139G	-3.56
C93A C95G	≤ -4.2
C93A C95U	-3.37
G92A C116A G143C A150G	≤ -4.2
C93A A98U C125G C131U	-2.4
C93U C114A	-3.41
U90A A106C A121U	≤ -4.2
C93G A107G	≤ -4.2
A91G C108U	-3.97
C93G C108G A142C C149U U151G	≤ -4.2
A91U G141A U144G	≤ -4.2
A91C C125A U135C	≤ -4.2
A91U G128A U139C A150U	≤ -4.2
G92C C132U	-1.6
G92U C95U A137U	-4.11
A91U C99G	≤ -4.2
G92A C103U	-2.02
A89U G94C A98G A150G	-2.68
C93U C96A	-1.65

Variant	polymerase ribozyme fitness (log ratio)
A89G G92U	-2.48
A89U U109G	-0.917
G92A U104G A110G	-3.8
C93G C103G	≤ -4.2
C93U C105U	-2.55
C93G U102G	≤ -4.2
G92U U145A	0.602
U90C C99G A138G	≤ -4.2
A91U A97G	-3.67
C93U A97U C125A	-2.13
G92A G141C	-3.71
G92A G141A	-2.48
G92A U148C	-4.02
C93A A110U	-3.99
G92A U104A A106C C108A	≤ -4.2
C93U A113U A119C G140U	-3.82
C93G G94U C95A G128A	≤ -4.2
A91U C95G C116A G143U A147C	≤ -4.2
U90C A147U	-3.58
A91C A97G U109C A142C	≤ -4.2
C93G U145G	-2.53
